Experimental findings from article PMC5414288 (2017) are described below.

This test deals with EGFR (on SKOV3 cells) (Homo sapiens, UniProt P00533). Briefly: saturation binding assay on SKOV3 cells (radioligand).

No end group written: not given here. *: point of attachment. HYNIC = NNc1ccc(C(=O)*)cn1

B1: HYNIC-SSS-GE11 peptide (peptide)
chain: {HYNIC}-SSSYHWYGYTPQNVI
modifications: also: 99mTc-tricine labeled
As usually defined, the Kd is the equilibrium constant for the complex coming apart. A low value points to higher affinity. In turn, B1 returned a dissociation constant (Kd) of 73 nM.
